# Biological target: Cy5-labeled proliferating cell nuclear antigen (PCNA) (human) (UniProt P12004)
# Sequence (P12004 whole entry): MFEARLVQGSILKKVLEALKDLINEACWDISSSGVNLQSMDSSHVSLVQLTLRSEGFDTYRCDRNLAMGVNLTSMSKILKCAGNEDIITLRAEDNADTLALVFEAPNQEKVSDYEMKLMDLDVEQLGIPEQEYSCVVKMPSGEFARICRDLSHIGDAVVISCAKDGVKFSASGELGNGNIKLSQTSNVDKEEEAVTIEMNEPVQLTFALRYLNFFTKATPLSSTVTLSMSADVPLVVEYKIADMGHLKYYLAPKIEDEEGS
# Chain of PAF15^50–77 peptide (Q15004 50-77): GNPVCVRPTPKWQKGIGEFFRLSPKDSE
# Chain of Doubly monoubiquitinated PAF15 (Di-UbPAF15) (Q15004 whole entry, looked up): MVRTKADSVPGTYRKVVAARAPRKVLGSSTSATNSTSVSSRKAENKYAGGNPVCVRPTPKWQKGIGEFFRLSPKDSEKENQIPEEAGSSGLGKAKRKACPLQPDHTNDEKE
# Chain of ΔN-PAF15 (truncated PAF15 variant lacking residues 2-31) (Q15004 32-111, stated change not applied): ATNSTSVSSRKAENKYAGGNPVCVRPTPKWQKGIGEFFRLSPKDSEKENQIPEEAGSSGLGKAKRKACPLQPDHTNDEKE
substance,measurement,value
Doubly monoubiquitinated PAF15 (Di-UbPAF15) (from UniProt Q15004 2-111) (complex),diffusion constant of Cy5-PCNA on DNA with 1 μM Di-UbPAF15,0.2 μm2/s
PAF15^50–77 peptide,diffusion constant of Cy5-PCNA on DNA with 20 μM PAF15 50-77,0.22 μm2/s
ΔN-PAF15 (truncated PAF15 variant lacking residues 2-31) (from UniProt Q15004 32-111) (domain or fragment),diffusion constant of Cy5-PCNA on DNA with 1 μM ΔN-PAF15,0.15 μm2/s
